Assay [1] has as its target T1, SR344 (N-terminal 1st to 344th amino acids of soluble human IL-6R) (human, UniProt P08887 20-344, limits assumed).
T1 construct: also called recombinant soluble human IL-6 receptor; soluble human IL-6 receptor
T1 sequence (looked up): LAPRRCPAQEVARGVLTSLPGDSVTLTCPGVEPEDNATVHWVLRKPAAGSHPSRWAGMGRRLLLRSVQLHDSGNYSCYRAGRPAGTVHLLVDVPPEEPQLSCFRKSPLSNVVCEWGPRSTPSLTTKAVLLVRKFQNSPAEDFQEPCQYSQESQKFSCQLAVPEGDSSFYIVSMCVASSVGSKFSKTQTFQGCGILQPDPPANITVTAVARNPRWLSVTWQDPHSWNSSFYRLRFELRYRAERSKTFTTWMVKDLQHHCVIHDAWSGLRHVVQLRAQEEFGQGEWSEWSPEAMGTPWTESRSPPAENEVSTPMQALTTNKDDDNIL
Put plainly: SPR (Biacore T100), antibody captured on Protein A/G, SR344 as analyte, 37 C. (In general: Surface plasmon resonance follows binding to a sensor surface in real time, without labels.)

Assay [2] addresses T2, soluble GPC3 core polypeptide (human, UniProt P51654 25-563).
T2 construct: also called soluble GPC3 core protein; glypican 3 (antigen)
Put plainly: competitive ELISA, soluble GPC3 core polypeptide on the plate, competitor biotinylated GPC3-H2L2. For orientation: ELISA stands for enzyme-linked immunosorbent assay.

Substitutions are numbered along the chain they refer to.

T2 sequence (P51654 other isoform, or with tags, fused parts or gaps limits assumed): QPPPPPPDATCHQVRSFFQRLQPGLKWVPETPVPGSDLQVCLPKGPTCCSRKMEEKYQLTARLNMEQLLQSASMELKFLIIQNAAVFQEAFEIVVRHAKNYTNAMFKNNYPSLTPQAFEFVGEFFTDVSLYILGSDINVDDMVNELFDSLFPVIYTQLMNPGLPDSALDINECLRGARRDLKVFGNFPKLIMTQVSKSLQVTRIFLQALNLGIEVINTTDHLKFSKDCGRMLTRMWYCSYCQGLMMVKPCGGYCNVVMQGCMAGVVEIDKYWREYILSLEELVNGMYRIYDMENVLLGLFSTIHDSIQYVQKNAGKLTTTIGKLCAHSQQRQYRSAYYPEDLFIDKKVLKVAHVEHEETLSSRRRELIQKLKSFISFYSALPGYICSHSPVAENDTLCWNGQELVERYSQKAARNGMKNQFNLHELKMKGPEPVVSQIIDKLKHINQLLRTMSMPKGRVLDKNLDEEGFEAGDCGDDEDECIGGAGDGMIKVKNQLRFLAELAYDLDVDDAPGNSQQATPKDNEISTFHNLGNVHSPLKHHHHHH

B1: RDC_23 (antibody, V domains shown)
VH: QVQLQESGPGLVRPSQTLSLTCTVSGYSITSDHAWSWVRQPPGRGLEWIGYISYSGITTYNPSLKSRVTMLRDTSKNQFSLRLSSVTAADTAVYYCARVLARITAMDYWGQGSLVTVSS
VL: DIQMTQSPSSLSASVGDRVTITCRASQDISSYLNWYQQKPGKAPKLLIYYTSRLHSGVPSRFSGSGSGTDFTFTISSLQPEDIATYYCGQGNRLPYTFGQGTKVEIK
notes: also called RDC_5H / RDC_11L
On to B1, for which, in assay [1], the “fold weaker affinity for SR344 than for rhIL-6sR” value worked out at 2 fold.

B2: GPC3_H2L2 (antibody, human IgG1, kappa, V domains shown)
VH: QVQLVQSGAEVKKPGASVKVSCKASGYTFTDYEMHWVRQAPGQGLEWMGALDPKTGDTAYSQKFKGRVTLTADKSTSTAYMELSSLTSEDTAVYYCTRFYSYTYWGQGTLVTVSS
VL: DVVMTQSPLSLPVTPGEPASISCRSSQSLVHSNRNTYLHWYLQKPGQSPQLLIYKVSNRFSGVPDRFSGSGSGTDFTLKISRVEAEDVGVYYCSQNTHVPPTFGQGTKLEIKR
Regarding B2, the binding result in assay [2] is “binds”.

B3: GPC3_H3L3 (antibody, human IgG1, kappa, V domains shown)
VH: B2 VH with K19T, V37I, A40P, Q43E, M48I, L51I, Q62E, K63S, K65Q, G66D
VL: B2 VL with V2I, R24Q, S25A, Q27E, L109V, K112E
With B3, in assay [2], the binding result is recorded as “binds”.

These data come from patent publication US20250011443A1 (published 2025).
